The test concerns the target T1, glutathione-S-transferase (GST) tagged human CAR ligand-binding domain (LBD) (human).
T1 construct: Component of a bought kit; It was held in the assay by a terbium-labelled anti-GST antibody (a tool only); also called CAR LBD; CAR-LBD
T1 sequence (Q14994 whole entry, looked up): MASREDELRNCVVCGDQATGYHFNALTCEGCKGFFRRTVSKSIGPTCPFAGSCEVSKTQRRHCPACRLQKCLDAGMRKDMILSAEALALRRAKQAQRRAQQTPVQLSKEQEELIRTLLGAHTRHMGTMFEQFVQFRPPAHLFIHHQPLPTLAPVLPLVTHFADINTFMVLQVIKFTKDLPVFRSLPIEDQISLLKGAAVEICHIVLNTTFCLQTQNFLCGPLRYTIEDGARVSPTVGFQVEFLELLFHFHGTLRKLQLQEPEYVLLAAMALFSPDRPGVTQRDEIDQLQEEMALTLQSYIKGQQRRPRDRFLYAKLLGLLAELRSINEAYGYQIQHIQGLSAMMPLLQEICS
The experiment in a line: FRET or BRET; LanthaScreen TR-FRET as a1, with the agonist CITCO 10 uM; three orders of adding the reagents (Figure 2A, 2B, 2C standard). As to conditions: both partners purified.

Ends that are not written are not given here.

Take EAEEPSLLKKLLLAPANTQ (also: fluorescein label, position not given here) [fluorescein-labeled PGC1α coactivator peptide]: the “fold of TR-FRET ratio with CITCO 10 uM over vehicle control (order: CAR LBD, peptide and antibody, CITCO)” value worked out at 1.94 fold; the “fold of TR-FRET ratio with CITCO 10 uM over vehicle control (order: CITCO, peptide and antibody, CAR LBD)” value was found to be 2.26 fold; the “fold of TR-FRET ratio with CITCO 10 uM over vehicle control (standard order)” value stood at 2.56 fold.
